Experiment: soluble on expression in E. coli; label from the status in PepcDB or PDB records
With “AMARVGVLGAKGKVGATMVRAVAAADDLTLSAELDAGDPLSLLTDGNTEVVIDFTHPDVVMGNLEFLIDNGIHAVVGTTGFTAERFQQVESWLVAKPNTSVLIAPNFAIGAVLSMHFAKQAARFFDSAEVIELHHPHKADAPSGTAARTAKLIAEARKGLPPNPDATSTSLPGARGADVDGIPVHAVRLAGLVAHQEVLFGTEGETLTIRHDSLDRTSFVPGVLLAVRRIAERPGLTVGLEPLLDLH” the “soluble on expression in E. coli” value was “soluble”.
In the case of “VGAPLAVELDRSSPVPLYFQLAQTIENAIIGGELAPGDRFENELALAKRLNLSRPTTRRAIQELVDKGLLVRKRGVGTQVVQSAVHRPVELTSLFDDLARAGQSPTTKLLDYQVSVPAEDVAAELNLQPGAEVASIRRLRSTNGEPLALMTNHIPVDLAPDPEELEAHGLYHALRARGVHIRLARQRIGAKAASKAEASLLDEKTGAPLLTMNRTAFDDSGSAVEFGSHCYRASRYYFDTTVVDR”, the “soluble on expression in E. coli” value is reported as “not soluble”.
For “MSLDKWEMERTDITMKHKLGGGQFGEVYEGVWKKYSLTVAVKTLKEDTMEVEEFLKEAAVMKEIKHPNLVQLLGVCTREPPFYIITEFMTYGNLLDYLRECNRQEVSAVVLLYMATQISSAMEYLEKKNFIHRDLAARNCLVGENHLVKVADFGLSRLMTGDTYTAHAGAKFPIKWTAPESLAYNKFSIKSDVWAFGVLLWEIATYGMSPYPGIDPSQVYELLEKDYRMERPEGCPEKVYELMRACWQWNPSDRPSFAEIHQAFETMFQESSISDEVEKELGKRGEGHHHHHH”, the “soluble on expression in E. coli” value was “soluble”.
In the case of “MIRVKRLDHVQICIPFGAEDEARAFYTGVLGFQEIEKPESLKGNGGLWYKVGDIQLHIGAENRDGYNSKSHPAFEVEDVEAARRYLEEHGVATQDEKPIPGVKRFSFRDPFRNRIELLEKIM”, the “soluble on expression in E. coli” value is reported as “not soluble”.
In the case of “MDDSTLRRKYPHHEWHAVNEGDSGAFVYQLTGGPEPQPELYAKIAPRAPENSAFDLSGEADRLEWLHRHGIPVPRVVERGADDTAAWLVTEAVPGVAAAEEWPEHQRFAVVEAMAELARALHELPVEDCPFDRRLDAAVAEARRNVAEGLVDLDDLQEERAGWTGDQLLAELDRTRPEKEDLVVCHGDLCPNNVLLDPGTCRVTGVIDVGRLGVADRHADIALAARELEIDEDPWFGPAYAERFLERYGAHRVDKEKLAFYQLLDEFF”, the “soluble on expression in E. coli” value is reported as “not soluble”.
With “MKLSVVMPVYNEKATLRAIYEQVAAVTIDKEIILVDDCSTDGTREIVRELGATGATVVLHDRNMGKGAALRSGFRHVTGDVVLIQDADLEYDPGQYPLLIQPILNGEVDVVYGSRFLSGERSLGMSFWNRAGNRILTYLSNTLTKLELTDVETCYKVFSRDVLERITIEENRFGCEPEITAKLAKLGVRIREVGISYRGRTSAEGKKIGWRDFISSVRCIAKYTLT” the “soluble on expression in E. coli” value was “soluble”.
For “MVASESILQALQTVIDPNTGKDLVTTRAIRNLEVNGADVTFDAQLGYPAKSQIPALRRALIAAARGVAGVDNVSVNMQSVIETHAVPRGIALLPNVKNVIAVASGKGGVGKSTTAVNLALALAAEGARVGLLDADIYGPSQAQMMGIEGRPQSEDGKTMEPLENYGVQVMSIGFLVDADEAMIWRGPMAVQALEQLLRQTNWKNLDYLVIDMPPGTGDIHLTLSQKVPVTGAVIVTTPQDIALLDARKGVKMFEKVGVPIVGVVENMAVHVCSQCGHAEHIFGQGGGQRMAQDYGLAYLGALPLDINIRQQADGGRPSVVADPDGEVAGLYKDVARQVAVAVAAMGKDYSSKFSSISISRAPAGGAAALEHHHHHH”, the “soluble on expression in E. coli” value was “soluble”.
With “MAIPYVVRKKADLTSGERKELWYGVPSKIQDRGGVQNKELAQVVELRGGFHRGQVEGILVEVADAIRYLLSMGQSVTIDGLGTFQTALTSPGFERPEQVTPGQVSVSRVYFVANSALRDRMKKTKCMRIPFKYYMSESMLTKEMKKADQEQEQTEE” the “soluble on expression in E. coli” value was “not soluble”.
With “MSLVRNSSRLLRSQLKRVQSVPVALYHENVVEHYENPRNVGSLDKKDVTVGTGLVGAPACGDVMKLQIKVDENGKIVDAKFKTFGCGSAIASSSLATEWVKGKSIDEAGKLKNTDIAKELRLPPVKLHCSMLAEDAIKAALADYKVKQQKKVAN” the “soluble on expression in E. coli” value was “not soluble”.
For “SSSEQKSQHCKPEEGVEAQEEALGLVGAQAPTTEEQEAAVSSSSPLVPGTLEEVPAAESAGPPQSPQGASALPTTISFTCWRQPNEGSSSQEEEGPSTSPDAESLFREALSNKVDELAHFLLRKYRAKELVTKAEMLERVIKNYKRCFPVIFGKASESLKMIFGIDVKEVDPTSNTYTLVTCLGLSYDGLLGNNQIFPKTGLLIIVLGTIAMEGDSASEEEIWEELGVMGVYDGREHTVYGEPRKLLTQDWVQENYLEYRQVPGSNPARYEFLWGPRALAETSYVKVLEHVVRVNARVRIAYPSLREAALLEEEEGV”, the “soluble on expression in E. coli” value was “soluble”.
With “MSLNVMYKNSCPNCGGDISGDRLLNGLPCEACLPYINGIDDVDHISKVKTLYNILLNNDKIKNYWNLYYNITTFETVFKYFRDKTGYEPWSLQKLWLRRLASNQSFTMSAPTGLGKTTTLMTYSVFIGQDVVYIVPTKSLMEQVCKRLEKLGAQVSCGKIDQKKVSVITISYLNKNADSIVSLKPNFVVIDDADAVIKSGKTTDRLVSLLGIPKDVYESAIQLIRLRNKYYFSNEYTEEVKEKIRELELKIAEFKDKISQLVIASATIRPKGIKQKALRLLTGFEPSSIQLYARNIIDAYTENLDLSIVKELGSGGLILVSKEYGRSKLNEIKKYVEDLGFNAKLAISGRKFLDDFSQGKVDILVGSASYYGVAVRGIDEPKRLKYVIYYGVPKIRAKLFDALSNPFTLLRVGKLIGIDFSKLQNKILILNPSEVQLLKFSIIKGEGHHHHHH” the “soluble on expression in E. coli” value was “not soluble”.
In the case of “MELLVKMGWDDWFAAHAGASSDAGRPGRVVAEQRGEYRVRTADGEVAAILTGRAMRETAGDRLERPVVGDWVIVEPVAGDSTVLVRAVLPRRTILARRESGRGAEVQPVAANVDIVFIVAGLDGALNLRRLERFLAAARESGAEPVVLLTKSDLAGDPAAPAEEAATVAPGIRVMTVSSLDGAGVDEVGALLAPGVTACFIGPSGVGKSSLVNLLAGDPVMAIGAVRERDAKGRHTTTHRQLILLPGGGIVIDTPGMREFGLWQVDEGIDAAFPEIAELAAGCRFHDCSHRHEPGCAVRTALAEGGLDPGRYGSYLKLRLEEETMATLADAEGRRERKKGERRMAKGLRAVLRKKGKK”, the “soluble on expression in E. coli” value is reported as “not soluble”.
With “MGKQLESRTIPPYEPKAGEEYMSPEQLAHFRKILEYQRAELSMEIDRAVHVMQEESTIFADPADRATQESDMALELRSRDRERKLIKKIDEIFTKIDSGEYGYCEKCGIEIGLKRLEARPTASLCIDCKTLDEIRERQMAK” the “soluble on expression in E. coli” value was “not soluble”.
In the case of “MGSDKIHHHHHHMKIAQIAPLTESVPPKLYGGTERVVSYITEALVDLGHDVTLFASGDSVTNAKLEAVWPRALRLDPGIRDRVAPHMLLMELVRRQAENFDVLHFHLDYYSFSVFKRQETPFVTTMHGRLDLPEQQPVFDTFNTAPVISISNAQRHPLPQARWLTTVYHGLPEQLYTPQPVEQKYLAFLGRISPEKRVDTAIRIAGRCGMPIRIAAKVDAADREYFERDIRPLLDLPYVEFIGEIADHQKAEFLSGAHALLFPIDWPEPFGLVMIEAMACGTPVIAFNRGSVPEVLEDGVTGFIVEDEIGAVAAVNRLHKMPRAGVRQRFEERFTSHRMAQQYVNAYQSVIRAQKRSRFKVIDTSGS”, the “soluble on expression in E. coli” value is reported as “not soluble”.
With “MTVERLENGVIVQRNTNEIEISITLDTVHGKLEGSTGVNFFDHLLNTFCHYSGLGLRVSTCESKDGILHHLIEDFGISLGLAFRELFDYTKVRRFGEATVPMNEALVGCYVDLSGRPFFQKNFEFSVEKIEDMPVEGFEEFMCGFVNHARITVHFFKFFGKNDHHISESAMKSFGLAIAKALESSEKKTTKGVID” the “soluble on expression in E. coli” value was “soluble”.
In the case of “MKYGIVIFPPKRIQDFANSYRKRYDSHYALIPPHITLKYPFEADEEQIKKMAKELRRIAAETPPIPIKVTKFSSFYPTSNIIYLKVEPNDVLERLHEQLHSGLFAGKPEFVFVPHITIGRDLPGAEYADVYSQLKLQDVHFEETVDRFHLLYQLENGSWTVYETFIVGGKETV”, the “soluble on expression in E. coli” value is reported as “soluble”.
In the case of “GPGSMSKQKKEVVINLDEVDEQTGYKSAELFVWLKFDETYLQKPEDDREADVDAWVDAFCEQMEEEGMNYDRNFVRSVCVLGIYAGARDEFQQRMGSGKAVYPNGDRYDGEFFEGKKHGTGRYCFVSRGKSECDRIVEKEMQKLGGAVPDEQFITNVAEKYKISRQIVSWIIEYGVYPCYHGDYVRGVRTGQGLMKNKDGTVYKGDFLANKRHGQGMFYYLNGDIFSGTWRNGLKHGYGTYHFAGGSEYRGSWVDGVFTQGQWIFPDGTYYEGLFNKKNRPCDDAASMHFPSIKMAQTGVFRRGVWAPSSALQVCEETPVDGMSWID”, the “soluble on expression in E. coli” value is reported as “soluble”.
In the case of “MFRVTCIDLENGEFALYINGHYLSSEDGSGEKLYLGDILERLSRLPGVTTETVERPVPDSDEWSWNDVADSVFPACITLSRNMTVAAFKQRLSRFPDDALCCGTFWLASDFLALDSSLTEDDIDAAMELAQHCHDANDGFNWSHLQWAIDEVKRGG”, the “soluble on expression in E. coli” value is reported as “not soluble”.
With “MGSDKIHHHHHHLSISIGSIKRAEAGKNILYRTLVQLSEFFHISIEDLIGDIPVSLWDYVRERPTQLIPCIGRDWELSLLQKLQLSSKTGLKTACVYGMQGLGKTSLVRHFLSRLDQTNWRALYLCSLDQGTFLRRFICTLLDISEIFDDEQLRFRIKMISTSPLVYFYLLRLSGLVLHKSELQAINNLSENRLHEVEVLSVMGLIQNFKQRKVSVLAIDSLHILNEGQLRVIKIFTQNMITQPILIIFSLTDVHRLLYLPDWLQSSNQIQLKPLQAIAMNALVNNEVEMNPCQPMKLAAYKKIVVQRARGNPLILKALIKSKRPDQDFPEEMVNSVQGMLTQLTGIECRLLQFLAACGPCVSIDTLELFNSQLSEPCICLLHRLVRIGFLYPRSECYIFRHILIWEIVKAQMNDSDTASVYSEQHNRLNA” the “soluble on expression in E. coli” value was “not soluble”.
For “VSQVHRILNCRGTRIHAVADSPPDQQGPLVVLLHGFPESWYSWRHQIPALAGAGYRVVAIDQRGYGRSSKYRVQKAYRIKELVGDVVGVLDSYGAEQAFVVGHDWGAPVAWTFAWLHPDRCAGVVGISVPFAGRGVIGLPGSPFGERRPSDYHLELAGPGRVWYQDYFAVQDGIITEIEEDLRGWLLGLTYTVSGEGMMAATKAAVDAGVDLESMDPIDVIRAGPLCMAEGARLKDAFVYPETMPAWFTEADLDFYTGEFERSGFGGPLSFYHNIDNDWHDLADQQGKPLTPPALFIGGQYDVGTIWGAQAIERAHEVMPNYRGTHMIADVGHWIQQEAPEETNRLLLDFLGGLRP”, the “soluble on expression in E. coli” value was “soluble”.
With “STRHPENYQWENWSLENVATILAHRFPNSYIWVIKCSRMHLHKFSCYDNFVKSNMFGAPEHNTDFGAFKHLYMLLVNAFNLSQNSLSKKSLNVWNKDSIASNCRSSPSHTTNGCQGEKVRTCEKSDESAMSFYPPSLNDASFTLIGFSKGCVVLNQLLFELKEAKKDKNIDAFIKSIRTMYWLDGGHSGGSNTWVTYPEVLKEFAQTGIIVHTHVTPYQVRDPMRSWIGKEHKKFVQILGDLGMQVTSQIHFTKEAPSIENHFRVHEVF” the “soluble on expression in E. coli” value was “soluble”.
In the case of “GMQTKVINFNDKFSLFNQHWSPRVIAEMNDYQFKLVKVEGEFVWHEHADTDEVFIVMEGTLQIAFRDQNITLQAGEMYVIPKGVEHKPMAKEECKIMIIEPR”, the “soluble on expression in E. coli” value is reported as “soluble”.
In the case of “MGSDKIHHHHHHMARTNPHRPFVPDPEQAALAPGVSGNDINGLGETAFRRPRMVYWAPDPDDIPHGSLQRYFYRQSAKEPDFASRRAARQAVLDAPLPLLADTVVIRDPADWTAALTQFVDSGLCDLTGVAEMNPDWVFEGHEIPQSRVIMIGVAHDYNVIATAPKPSAGLEVMTQYTRAAQAAKTIAGWLRQQGWQAEPLTGPMTGALAMIPPALACGFGELGKHGSIINPDLGASFRLSAVLSDAPFAPTPAQDHGIDGFCQNCHICQDACPPEALFAQKQTVRGARKWYVDFDKCLPFFNQTHGCAICIAECPWSRPGIGPNLAAKLARKRNRDATG”, the “soluble on expression in E. coli” value is reported as “not soluble”.
